Results: article PMC4157451

Molecular target: T1, PvuRts1I, Q52612
T1 chain: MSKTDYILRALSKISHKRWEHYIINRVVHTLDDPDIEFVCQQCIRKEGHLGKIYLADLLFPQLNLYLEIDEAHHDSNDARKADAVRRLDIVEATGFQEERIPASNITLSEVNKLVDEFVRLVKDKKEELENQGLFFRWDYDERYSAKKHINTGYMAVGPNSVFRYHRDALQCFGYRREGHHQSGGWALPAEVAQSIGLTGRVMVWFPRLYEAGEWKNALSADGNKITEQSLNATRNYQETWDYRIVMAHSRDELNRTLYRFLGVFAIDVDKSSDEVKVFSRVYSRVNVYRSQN
Experiment: SEC; size-exclusion chromatography of purified PvuRts1I; single peak, apparent molecular weight 89 kDa against a theoretical 34 kDa
Conditions: remark: other sources report otherwise

B1: PvuRts1I, Q52612 1-293 (enzyme)
chain: MSKTDYILRALSKISHKRWEHYIINRVVHTLDDPDIEFVCQQCIRKEGHLGKIYLADLLFPQLNLYLEIDEAHHDSNDARKADAVRRLDIVEATGFQEERIPASNITLSEVNKLVDEFVRLVKDKKEELENQGLFFRWDYDERYSAKKHINTGYMAVGPNSVFRYHRDALQCFGYRREGHHQSGGWALPAEVAQSIGLTGRVMVWFPRLYEAGEWKNALSADGNKITEQSLNATRNYQETWDYRIVMAHSRDELNRTLYRFLGVFAIDVDKSSDEVKVFSRVYSRVNVYRSQN
B1 showed a stoichiometry N of 2.
